# Test results reported in US7829301B2, “Screening assays for binding antagonists of the AMD-associated variant of factor H (H384)” (The University of Manchester, priority 2006, dated 2010).
# B1: deglycosylated FMOD: fibromodulin from bovine articular cartilage treated with N-glycosidase F to remove N-linked oligosaccharides including keratan sulphate (protein)
# chain: QYEEDSHWWFQFLRNQQSTYDDPYDPYPYEPYEPYPYGGEEGPAYAYGSPPQPEPRDCPQECDCPPNFPTAMYCDNRNLKYLPFVPSRMKYVYFQNNQISSIQEGVFDNATGLLWIALHGNQITSDKVGKKVFSKLRHLERLYLDHNNLTRIPSPLPRSLRELHLDHNQISRVPNNALEGLENLTALYLHHNEIQEVGSSMKGLRSLILLDLSYNHLRKVPDGLPSALEQLYLEHNNVFSVPDSYFRGSPKLLYVRLSHNSLTNNGLASNTFNSSSLLELDLSYNQLQKIPPVSTNLENLYLQGNRINEFSISSFCTVVDVMNFSKLQVLRLDGNEIKRSAMPADAPLCLRLASLIEI
# Target: T1, full length FH (Homo sapiens, UniProt P08603)
# T1 construct: Purification of Full-Length Factor H from Human Serum; from tissue; host or cells: human serum
# Assay: Binding of full length FH to untreated and N-glycosidase F-treated FMOD
# Conditions: p<10-4 for all data points above zero
# Description: FMOD was isolated from bovine articular cartilage (Heinghrd et al., (1986) J. Biol. Chem. 261, 13866-13872) and recombinant CRP was obtained from Calbiochem. Deglycosylated FMOD was prepared by treatment with N-glycosiadase F (Roche Applied Science) as previously described (Sjöberg et al. (2005) J. Biol. Chem. 280, 32301-32308).
# CRP or FMOD was coated overnight at 4° C. onto microtiter plates (Maxisorp, Nunc) at a concentration of 10 μg/ml in 75 mM sodium carbonate buffer, pH 9.6. Wells treated only with coating buffer or 1% (w/v) BSA (Sigma) in coating buffer (for the assays involving FMOD) were used as negative controls. Between each step the wells were washed extensively with 50 mM Tris-HCl, 150 mM NaCl, 0.1% (v/v) Tween 20, pH 7.5. All wells were blocked with 1% (w/v) BSA (Sigma) in phosphate buffered saline (Invitrogen) for 1 hour at 37° C. […] The amount of bound protein was assessed using a goat polyclonal anti-FH antibody (Quidel, Cat # A312) followed by HRP-labeled anti-goat secondary antibodies (Dako) and the OPD development kit (Dako). Detection of biotinylated protein was performed using a StreptABComplex/HRP-kit from Dako, and in both cases the absorbance at 490 nm was measured to quantify protein binding.
# T1 sequence (P08603 19-1231): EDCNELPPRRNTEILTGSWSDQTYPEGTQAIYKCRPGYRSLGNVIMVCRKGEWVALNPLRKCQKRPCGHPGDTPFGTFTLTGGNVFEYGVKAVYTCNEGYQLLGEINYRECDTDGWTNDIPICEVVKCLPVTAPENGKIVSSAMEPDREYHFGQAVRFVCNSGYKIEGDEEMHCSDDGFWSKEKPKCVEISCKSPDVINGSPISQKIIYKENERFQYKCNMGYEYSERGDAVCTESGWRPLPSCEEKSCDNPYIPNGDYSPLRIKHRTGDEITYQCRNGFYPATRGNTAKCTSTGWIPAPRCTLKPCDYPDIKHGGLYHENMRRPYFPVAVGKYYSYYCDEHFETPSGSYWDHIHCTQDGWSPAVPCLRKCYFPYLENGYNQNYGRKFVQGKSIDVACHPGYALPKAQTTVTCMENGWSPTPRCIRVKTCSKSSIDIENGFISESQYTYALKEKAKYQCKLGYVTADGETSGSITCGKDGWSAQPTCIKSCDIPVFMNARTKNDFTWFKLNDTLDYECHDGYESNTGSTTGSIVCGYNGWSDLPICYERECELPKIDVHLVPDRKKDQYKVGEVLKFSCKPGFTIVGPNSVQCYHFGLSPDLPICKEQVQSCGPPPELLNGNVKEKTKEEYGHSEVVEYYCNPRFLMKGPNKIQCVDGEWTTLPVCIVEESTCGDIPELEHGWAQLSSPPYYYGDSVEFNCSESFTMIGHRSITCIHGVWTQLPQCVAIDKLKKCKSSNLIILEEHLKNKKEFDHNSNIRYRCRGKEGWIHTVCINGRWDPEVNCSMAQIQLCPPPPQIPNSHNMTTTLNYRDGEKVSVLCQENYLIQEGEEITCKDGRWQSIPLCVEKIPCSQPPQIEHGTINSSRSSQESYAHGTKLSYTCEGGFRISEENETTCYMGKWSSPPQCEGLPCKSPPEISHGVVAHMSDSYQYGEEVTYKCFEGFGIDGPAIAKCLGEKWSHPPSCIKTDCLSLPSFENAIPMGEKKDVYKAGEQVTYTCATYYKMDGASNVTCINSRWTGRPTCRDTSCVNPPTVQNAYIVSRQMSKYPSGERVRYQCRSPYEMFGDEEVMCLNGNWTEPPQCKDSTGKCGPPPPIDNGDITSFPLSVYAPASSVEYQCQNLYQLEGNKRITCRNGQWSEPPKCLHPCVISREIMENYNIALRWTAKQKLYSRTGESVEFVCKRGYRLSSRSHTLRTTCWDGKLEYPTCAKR
molecule,measurement,value
B1,binding of FH compared to keratan sulphate-containing FMOD,significantly better
